The data set deals with the molecule itself. In words: non-reducing SDS-PAGE with immunoblot; iMEF stably expressing ev or m152-V5, stimulated with 10 μg/ml ISD (also with Brefeldin A); lysis in 25 mM Tris-HCl pH 7.6, 150 mM NaCl, 1% IGEPAL CA-630, 1% sodium deoxycholate, 0.1% SDS; anti-STING blot for STING dimers.

B1: endogenous murine STING (natural protein)
chain: MPYSNLHPAIPRPRGHRSKYVALIFLVASLMILWVAKDPPNHTLKYLALHLASHELGLLLKNLCCLAEELCHVQSRYQGSYWKAVRACLGCPIHCMAMILLSSYFYFLQNTADIYLSWMFGLLVLYKSLSMLLGLQSLTPAEVSAVCEEKKLNVAHGLAWSYYIGYLRLILPGLQARIRMFNQLHNNMLSGAGSRRLYILFPLDCGVPDNLSVVDPNIRFRDMLPQQNIDRAGIKNRVYSNSVYEILENGQPAGVCILEYATPLQTLFAMSQDAKAGFSREDRLEQAKLFCRTLEEILEDVPESRNNCRLIVYQEPTDGNSFSLSQEVLRHIRQEEKEEVTMNAPMTSVAPPPSVLSQEPRLLISGMDQPLPLRTDLI
notes: stimulator of interferon genes (STING), endogenous in immortalized B6J mouse embryonic fibroblasts; Dimers seen on non-reducing SDS-PAGE after ISD stimulation; also called Endogenous STING; source: endogenous, iMEF lysate
The stoichiometry N is a count of units in the complex or per binding partner. Turning to B1, the “stoichiometry N” value stood at 2.

The values are drawn from publication PMC6396373, “The herpesviral antagonist m152 reveals differential activation of STING‐dependent IRF and NF‐κB signaling and STING's dual role during MCMV infection” (The EMBO Journal, 2019).
